Molecular target: MMP-14 catalytic domain (Homo sapiens, UniProt P50281)
Test: enzyme inhibition assay

B1: N-TIMP2D-Cys-PEG N-terminal domain (protein)
chain: CSCSPVHPQQAFCNADVVIRAKAVSEKEVDSGNDIYGNPIKRIQYEIKQIKMFKGPEKDIEFIYTAPSSAVCGVSLDVGGKKEYLIAGKAEGDGKMHITLCDFIVPWDTLSTTQKKSLNHRYQMGC
modifications: PEGylated
- Ki: 0.18 nM
